# Measurements as given in patent US20190169308A1 (ALLIGATOR BIOSCIENCE, published 2019).
# Residue numbers refer to the chain shown, from its start.
# T1: recombinant human OX40 (R&D #1493-CD) (human, UniProt P43489 29-216, limits assumed)
# T1 sequence (looked up): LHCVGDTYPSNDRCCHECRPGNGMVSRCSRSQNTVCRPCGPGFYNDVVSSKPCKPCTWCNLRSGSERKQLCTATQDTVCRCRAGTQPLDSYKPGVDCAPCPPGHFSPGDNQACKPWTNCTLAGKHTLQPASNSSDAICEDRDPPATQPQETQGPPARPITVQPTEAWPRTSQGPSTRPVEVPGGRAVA
# B1: 1200/1201 (antibody, V domains shown)
# VH: EVQLLESGGGLVQPGGSLRLSCAASGFTFSSYAMSWVRQAPGKGLEWVSGISGGGGGTYYADSVKGRFTISRDNSKNTLYLQMNSLRAEDTAVYYCARDVAYFDYWGQGTLVTVSS
# VL: DIQMTQSPSSLSASVGDRVTITCRASQSISSYLNWYQQKPGKAPKLLIYAASSLQSGVPSRFSGSGSGTDFTLTISSLQPEDFATYYCQQYYIPHTFGQGTKLEIK
# B2: 1620/1621 (antibody, V domains shown)
# VH: EVQLLESGGGLVQPGGSLRLSCAASGFTFSGYYMYWVRQAPGKGLEWVSGISSSGSYTYYADSVKGRFTISRDNSKNTLYLQMNSLRAEDTAVYYCARSVGPYFDYWGQGTLVTVSS
# VL: B1 VL with Y91G, Y92V, I93G, H95Y
# B3: 1204/1205 (antibody, V domains shown)
# VH: EVQLLESGGGLVQPGGSLRLSCAASGFTFSSYYMGWVRQAPGKGLEWVSGIGSYYGYTGYADSVKGRFTISRDNSKNTLYLQMNSLRAEDTAVYYCARAYYDYNYYYAYFDYWGQGTLVTVSS
# VL: DIQMTQSPSSLSASVGDRVTITCRASQSISSYLNWYQQKPGKAPKLLIYAASSLQSGVPSRFSGSGSGTDFTLTISSLQPEDFATYYCQQSVPHYPFTFGQGTKLEIK
# B4: 1626/1627 (antibody, V domains shown)
# VH: EVQLLESGGGLVQPGGSLRLSCAASGFTFGGYSMYWVRQAPGKGLEWVSSIGGYYYSTYYADSVKGRFTISRDNSKNTLYLQMNSLRAEDTAVYYCARSYYGSIDYWGQGTLVTVSS
# VL: B3 VL with S91G, V92T, P93G, H94Y, Y95G, F97L
# Biological target: T2, CD40-Fc (Ancell #504-820) (human, UniProt P25942 21-193)
# T2 construct: not shown: Fc part, bought reagent, not described
# Assay: ELISA, coated CD40-Fc
# Description: (§1) ELISA plates (Greiner #655074) were coated with 50 μl/well of recombinant human OX40 (R&D #1493-CD), CD40-Fc (Ancell #504-820) or CD137 (R&D #838-4B) diluted to a final concentration of 0.5 μg/ml in PBS for 1h at 37° C. or overnight at 4° C. Plates were washed with PBS+0.05% TWEEN20 (PBST), followed by block with PBST+1% bovine serum albumin (BSA). Antibody samples were prepared as serial 1/10 dilutions from 10-0.01 μg/ml in PBST+1% BSA and incubated for 1 h in room temperature, followed by detection using a horse radish peroxidase-conjugated anti-human kappa light chain antibody (AbD Serotec #STAR127P) and developed using SuperSignal ELISA Pico Chemiluminescent substrate (Pierce ThermoScientific #37069).
# T2 sequence (P25942 21-193 limits assumed): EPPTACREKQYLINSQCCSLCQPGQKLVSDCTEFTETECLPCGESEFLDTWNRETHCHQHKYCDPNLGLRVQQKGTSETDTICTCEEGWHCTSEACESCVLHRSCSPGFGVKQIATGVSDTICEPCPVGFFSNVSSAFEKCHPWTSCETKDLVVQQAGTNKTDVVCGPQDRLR
row,binding result,Binder
1,no binding (tested: 10 µg/ml),B1
2,no binding (tested: 10 µg/ml),B2
3,no binding (tested: 10 µg/ml),B3
4,no binding (tested: 10 µg/ml),B4

# Biological target: T1, recombinant human OX40 (R&D #1493-CD)
# Assay: ELISA, coated OX40
# Description: as §1
row,binding result,Binder
1,no binding (tested: 10 µg/ml),B1
2,no binding (tested: 10 µg/ml),B2
3,no binding (tested: 10 µg/ml),B3
4,no binding (tested: 10 µg/ml),B4

# Biological target: T3, recombinant human CD137-Fc (R&D #838-4B) (human, UniProt Q07011 24-186)
# T3 construct: bought; also called CD137 (R&D #838-4B); not shown: Fc part, bought reagent, not described
# Assay: ELISA, coated CD137-Fc
# Description: Binding of CD137 antibodies to recombinant human CD137 was determined by sandwich ELISA. Briefly, ELISA plates (Greiner #655074) coated with recombinant human CD137-Fc (R&D #838-4B) were incubated with serial dilutions of the various CD137 antibodies to be investigated. CD137 antibodies were detected using HRP-conjugated goat-anti-human kappa light chain (AbD Serotec #STAR127P) and developed with SuperSignal ELISA Pico Chemiluminescent substrate (Pierce #37069). EC50 values of the various antibodies were determined in 2-6 separate experiments.
# T3 sequence (Q07011 24-186 limits assumed): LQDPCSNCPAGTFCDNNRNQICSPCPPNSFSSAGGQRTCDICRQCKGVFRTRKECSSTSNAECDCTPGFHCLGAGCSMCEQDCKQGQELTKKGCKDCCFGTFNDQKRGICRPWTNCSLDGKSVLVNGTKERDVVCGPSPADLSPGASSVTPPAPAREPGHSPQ
row,EC50,Binder
1,0.39 nM,B1

# Biological target: T4, human CD137 on transfected CHO cells (human, UniProt Q07011 24-186; P25942 194-277, limits assumed)
# T4 construct: extracellular domain;domain: transmembrane and intracellular part; also called CHO-huCD137; CHOhCD137
# Assay: flow cytometry, CHO-huCD137; 95% CI of EC50
# Description: Binding and EC50 was determined using flow cytometric analysis of CHO cells transfected with human CD137, cynomolgus CD137 or empty vector. The extracellular part of human or cynomolgus CD137 was fused to the transmembrane and intracellular part of human CD40 and cloned into pcDNA3.1. The vector was subsequently stably transfected into CHO cells. […] CD137-transfected and empty vector-transfected cells were incubated with CD137 antibodies for at least 1h at 4° C. to saturate the binding. In order to minimize antibody internalization, 0.05% sodium azide was used in the incubation buffer and all work was performed on ice. […] Directly after staining the cells were fixed with a paraformaldehyde solution (10x concentrate BD CellFIX, BD biosciences #340181). Cells were analyzed by flow cytometry using FACSVerse (BD Biosciences). The median fluorescence intensity (MFI) for each sample was determined and the dose response data was analysed using Graph Pad Prism.
# MFI data was normalized for each antibody, where 0% is defined as the lowest value and 100% is the highest value in the dose titration for each antibody.
# T4 sequence (Q07011 other isoform, or with tags, fused parts or gaps limits assumed): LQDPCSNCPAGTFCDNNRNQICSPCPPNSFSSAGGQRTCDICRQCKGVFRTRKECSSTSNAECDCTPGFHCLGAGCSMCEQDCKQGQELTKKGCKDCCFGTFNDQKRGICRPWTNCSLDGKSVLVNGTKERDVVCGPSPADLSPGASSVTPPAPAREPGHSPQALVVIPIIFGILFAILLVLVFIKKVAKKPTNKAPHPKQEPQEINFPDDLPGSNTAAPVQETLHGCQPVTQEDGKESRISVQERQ
row,EC50,Binder
1,0.2 to 0.36 µg/mL,B1

# Biological target: T5, human/mouse CD137 chimera 1550
# T5 construct: on transfected FreeStyle 293-F cells
# Assay: flow cytometry, 293-F cells with CD137 chimera
# Description: (§2) The ability of each antibody to bind to a panel of human/mouse CD137 chimeras expressed on the surface of transfected cells was analyzed by flow cytometry.
# (§3) The chimeras were designed by exchanging domains or modules of the human CD137 with the corresponding mouse domain (FIG. 7). Genes of CD137 human/mouse chimeras were synthesized (GenScript) and constructs cloned into pcDNA3.1 vector (Invitrogen) and transiently transfected into FreeStyle 293-F cells (Invitrogen). The transfected cells were incubated with CD137 antibodies and control antibodies, followed by incubation with anti-human IgG-PE (Jackson Immunoresearch) for detection and analyzed with FACS Verse (BD Biosciences). Binding to the different chimeric constructs was calculated as relative MFI compared to the binding of the isotype control, followed by normalization to the full-length human CD137 construct to minimize the effect of affinity differences between individual antibodies.
row,MFI/isotype control normalized to full-length human CD137,Binder
1,0.05,B1
2,0.17,B2
3,0.07,B3
4,0.1,B4

# Biological target: T6, human/mouse CD137 chimera 1551
# T6 construct: on transfected FreeStyle 293-F cells
# Assay: flow cytometry, 293-F cells with CD137 chimera
# Description: as §2, §3
row,MFI/isotype control normalized to full-length human CD137,Binder
1,0.04,B1
2,0.33,B2
3,0.11,B3
4,0.11,B4

# Biological target: T7, human/mouse CD137 chimera 1552
# T7 construct: on transfected FreeStyle 293-F cells
# Assay: flow cytometry, 293-F cells with CD137 chimera
# Description: as §2, §3
row,MFI/isotype control normalized to full-length human CD137,Binder
1,0.05,B1
2,0.18,B2
3,0.13,B3
4,0.11,B4

# Biological target: T8, human/mouse CD137 chimera 1553
# T8 construct: on transfected FreeStyle 293-F cells
# Assay: flow cytometry, 293-F cells with CD137 chimera
# Description: as §2, §3
row,MFI/isotype control normalized to full-length human CD137,Binder
1,0.65,B1
2,0.17,B2
3,0.85,B3
4,0.14,B4

# Biological target: T9, human/mouse CD137 chimera 1554
# T9 construct: on transfected FreeStyle 293-F cells
# Assay: flow cytometry, 293-F cells with CD137 chimera
# Description: as §2, §3
row,MFI/isotype control normalized to full-length human CD137,Binder
1,0.84,B1
2,0.17,B2
3,0.73,B3
4,0.12,B4

# Biological target: T10, human/mouse CD137 chimera 1555
# T10 construct: on transfected FreeStyle 293-F cells
# Assay: flow cytometry, 293-F cells with CD137 chimera
# Description: as §2, §3
row,MFI/isotype control normalized to full-length human CD137,Binder
1,0.24,B1
2,0.32,B2
3,0.28,B3
4,0.29,B4

# Biological target: T11, full-length human CD137 construct 1030 (human, UniProt Q07011 24-255)
# T11 construct: whole, on cells; on transfected FreeStyle 293-F cells; also called Full-length CD137
# Assay: flow cytometry, 293-F cells with full-length CD137 (reference of the normalization)
# Description: as §2, §3
# T11 sequence (Q07011 24-255): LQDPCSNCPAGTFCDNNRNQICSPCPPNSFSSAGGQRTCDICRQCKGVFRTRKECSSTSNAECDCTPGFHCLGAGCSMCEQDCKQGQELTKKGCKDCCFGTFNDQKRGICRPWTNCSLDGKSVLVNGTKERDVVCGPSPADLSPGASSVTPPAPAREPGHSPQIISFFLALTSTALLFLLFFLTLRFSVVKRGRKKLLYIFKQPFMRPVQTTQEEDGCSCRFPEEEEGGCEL
row,MFI/isotype control normalized to full-length human CD137,Binder
1,1,B1
